Patent publication US6632794B1, “Insulin-like growth factor agonist molecules” (Genentech, Inc., priority 1997, dated 2003)

Tests used:
dwarf rats = experiment: Long-term administration to GH-deficient dwarf (dw/dw) rats; assay type: in vivo, rat; settings: 150 μg of IGF-I agonist as printed
IGFBP-3 = IGFBP-3 (Homo sapiens, UniProt P17936); experiment: ^125I-IGF-I competitive binding plate assay, IGFBP-3; settings: displacement of ^125I-IGF-I, FIG. 7
Procedure: (§1) The mutant (Leu^24,Ala^31)hIGF-I was also tested for its ability to displace radio-labeled rhIGF-I off the IGFBPs in a competitive binding assay. This assay involves coating recombinant human (rh) IGFBP-1 or rhIGFBP-3 (160 ng/ml) onto 96-well plates overnight, blocking the plates for one hour with 0.5% BSA, adding rhIGF-I (250-0.08 ng/ml) or (Leu^24,Ala^31)hIGF-I for 1 hour, then adding 20,000 cpm of ^125I-IGF-I and incubating for 2 hours before washing and counting.
(§2) As an additional assay of peptide activity, several peptides were tested in an assay using ^125I-labeled IGF-I to measure inhibition of IGFBP binding, as described in Example 1 (Assay 3). Serial dilutions of peptide were added to an IGFBP-1 or an IGFBP-3 plate. Thereafter, ^125I-labeled IGF-I was added and the plates were incubated for 2 hours. The plates were then washed and counted to determine the amount of bound IGF-I.

[1] = biological target: T1, recombinant human (rh) IGFBP-1 (Homo sapiens, UniProt P08833); experiment: ^125I-IGF-I competitive binding plate assay, IGFBP-1; settings: displacement of ^125I-IGF-I, FIG. 6
T1 sequence (P08833 26-259): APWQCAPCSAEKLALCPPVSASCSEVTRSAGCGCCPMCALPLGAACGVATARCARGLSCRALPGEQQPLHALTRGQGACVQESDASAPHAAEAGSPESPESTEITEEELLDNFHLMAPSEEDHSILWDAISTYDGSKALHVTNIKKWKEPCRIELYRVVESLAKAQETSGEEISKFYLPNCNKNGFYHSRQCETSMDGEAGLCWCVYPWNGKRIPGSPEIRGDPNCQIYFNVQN
Procedure: as §1, §2

[2] = biological target: T2, human Type 1 IGF receptor (Homo sapiens, UniProt P08069); experiment: KIRA for phosphorylation of the human Type 1 receptor in MCF-7 cells; assay type: cell-based; settings: substance alone
T2 construct: host or cells: MCF-7
T2 sequence (P08069 31-736 limits assumed): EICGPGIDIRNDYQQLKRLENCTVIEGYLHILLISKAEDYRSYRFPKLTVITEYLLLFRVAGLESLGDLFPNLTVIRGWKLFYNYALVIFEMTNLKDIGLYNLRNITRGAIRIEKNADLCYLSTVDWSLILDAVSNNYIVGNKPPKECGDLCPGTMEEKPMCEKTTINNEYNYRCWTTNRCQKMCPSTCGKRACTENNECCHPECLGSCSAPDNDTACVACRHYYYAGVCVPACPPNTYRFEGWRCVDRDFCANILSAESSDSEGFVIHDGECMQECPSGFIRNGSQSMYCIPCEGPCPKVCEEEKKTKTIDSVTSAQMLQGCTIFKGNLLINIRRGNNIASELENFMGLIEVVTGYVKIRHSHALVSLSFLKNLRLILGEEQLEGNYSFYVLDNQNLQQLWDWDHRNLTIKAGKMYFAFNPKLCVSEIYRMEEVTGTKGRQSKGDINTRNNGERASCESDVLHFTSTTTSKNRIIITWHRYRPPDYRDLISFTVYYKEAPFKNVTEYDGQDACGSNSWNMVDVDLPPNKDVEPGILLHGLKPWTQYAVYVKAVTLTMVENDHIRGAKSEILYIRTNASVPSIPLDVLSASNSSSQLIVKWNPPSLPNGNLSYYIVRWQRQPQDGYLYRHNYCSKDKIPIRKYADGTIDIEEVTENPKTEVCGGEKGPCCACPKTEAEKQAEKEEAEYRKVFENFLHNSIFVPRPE
T2 sequence (P08069 741-1367 partner limits assumed): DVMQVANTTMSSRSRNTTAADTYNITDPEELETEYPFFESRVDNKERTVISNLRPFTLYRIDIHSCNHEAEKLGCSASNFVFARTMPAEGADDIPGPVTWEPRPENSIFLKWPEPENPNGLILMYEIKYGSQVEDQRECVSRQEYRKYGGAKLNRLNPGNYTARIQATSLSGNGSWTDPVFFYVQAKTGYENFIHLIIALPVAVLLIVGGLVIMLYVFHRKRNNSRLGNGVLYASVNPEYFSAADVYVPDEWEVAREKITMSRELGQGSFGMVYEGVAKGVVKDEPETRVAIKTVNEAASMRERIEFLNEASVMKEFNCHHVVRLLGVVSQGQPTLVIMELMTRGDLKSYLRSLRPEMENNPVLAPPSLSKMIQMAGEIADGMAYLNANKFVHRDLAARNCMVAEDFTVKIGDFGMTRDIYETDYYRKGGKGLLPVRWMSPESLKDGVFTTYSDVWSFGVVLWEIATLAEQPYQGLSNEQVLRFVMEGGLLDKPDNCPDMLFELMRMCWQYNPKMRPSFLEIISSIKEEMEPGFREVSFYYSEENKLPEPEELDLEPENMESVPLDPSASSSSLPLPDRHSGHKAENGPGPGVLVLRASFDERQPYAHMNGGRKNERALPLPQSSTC

IGFBP-3, sequence (P17936 28-291): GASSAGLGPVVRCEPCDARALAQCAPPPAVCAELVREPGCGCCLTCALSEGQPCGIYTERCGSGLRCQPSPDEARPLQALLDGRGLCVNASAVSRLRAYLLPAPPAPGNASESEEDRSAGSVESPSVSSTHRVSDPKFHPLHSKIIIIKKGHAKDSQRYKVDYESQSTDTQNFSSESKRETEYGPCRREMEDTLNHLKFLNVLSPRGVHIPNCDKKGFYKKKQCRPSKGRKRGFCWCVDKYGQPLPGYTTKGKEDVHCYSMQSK

Question: Which “total IGF-I (rat and human) in blood” value (dwarf rats) does the source give for (Leu^24,Ala^31)hIGF-I here?
Answer: rise in total IGF-I

Question: What about the “binding affinity to recombinant IGFBP-3” value (IGFBP-3) of the same substance?
Answer: affinity only several fold different from that of wild-type hIGF-I

Question: And the “binding affinity to recombinant IGFBP-1” value [1]?
Answer: affinity only several fold different from that of wild-type hIGF-I

Question: And the “phosphorylation of the IGF-I receptor (KIRA)” value [2]?
Answer: did not cause any change in receptor phosphorylation
